Key:
[1] = biological target: Recombinant SSL1 of S. aureus strain MW2 (allele type 1) (Staphylococcus aureus strain MW2)
[2] = biological target: Recombinant SSL1 of S. aureus strain Newman (allele type 3) with a C-terminal 6-His tag (Staphylococcus aureus strain Newman)
[3] = biological target: Recombinant SSL1 of S. aureus ocular isolate 295.236 (allele type 2) (Staphylococcus aureus isolate 295.236)
[4] = biological target: the molecule itself; assay: gelatin zymography with SDS compared with reduced, denaturing SDS-PAGE

Recombinant SSL1 of S. aureus strain MW2 (allele type 1) (from UniProt A0A0H3KAV3 31-226) (natural protein)
stoichiometry N [1]: 2

Recombinant SSL1 of S. aureus strain Newman (allele type 3) with a C-terminal 6-His tag (from UniProt A0A0H3KAV3 31-226) (natural protein)
stoichiometry N [2]: 2

Recombinant SSL1 of S. aureus ocular isolate 295.236 (allele type 2) (from UniProt A0A0H3KAV3 31-226) (natural protein)
stoichiometry N [3]: 2

B1: Staphylococcus aureus superantigen-like protein SSL1 of strain Newman, native secreted protein (natural protein)
chain: KAEVKQQSESELKHYYNKPILERKNVTGFKYTDEGKHYLEVTVGQQHSRITLLGSDKDKFKDGENSNIDVFILREGDSRQATNYSIGGVTKSNSVQYIDYINTPILEIKKDNEDVLKDFYYISKEDISLKELDYRLRERAIKQHGLYSNGLKQGQITITMNDGTTHTIDLSQKLEKERMGESIDGTKINKILVEMK
notes: also called the toxin; the protease
stoichiometry N [4]: 2

Reference: article PMC6471365 (Pathogens, 2019)
